Assay: yeast display, Sf9 membrane polyspecificity reagent, FACS + sequencing; frameworks hold sequencing errors
Summary of the method: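 Genes from sorted yeast were amplified by colony PCR, read by MiSeq 2 × 250 sequencing and filtered on CDR length. These cells carried a synthetic nanobody library in Saccharomyces cerevisiae BJ5465 and were sorted by FACS into low and high (top ~1%) gates on anti-HA and streptavidin fluorescence. Polyreactivity is labelled according to the gate of origin.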

Sequence | polyreactivity (PSR sort gate)
QVKLVESGGGLVQAGGSLRLTCAAYGFTFAGYTLGCYRQAPGKERELVAAITSSGGSTYYADYVKGRFTISRDNAKNTVYLQMNSLKPEDTAVYYCAARSHSTYYYWGQGTQVTVSS | high polyreactivity
QVKLVESGGGLVQARGSLRLSCAASGRIFTIYAKGWYRPAPGKERELVAAITRGGNTNYADSVKGRFTISRDNAKNTVYLQMNSLKPEDTAVYNCAARANVYTKKRDYWGQGTQVTVSS | high polyreactivity
QVKLVESGRALVQAGCSLPLSCAASGRIFTRYAMGWYRQAPGKERELVAAISYGGGGTYYADSVKGSFTISRDNAKNTVYVQMNSLKPEDTAVYYCATDDPLSQINEQGMDYWGQGTQVTVSS | low polyreactivity
QVKLVESGRGLVQAGCSLRITCAASGGTLDNNAMGRYRQAPGKERELVAAISSSGSRTYYADSVKGRFTISRDHAKNSVYLQMNSLKPEDTAVYYCAARRYVRRYYWGQGTQVTVSS | high polyreactivity
QVKLVETGGGLVQAGGSLRLSCAASGITFAYYAMGWYRQAPGKERELVARISRRGGSTYYADSVKGRFTISRDNAKNNVYLQMNSLKPEDTAVYYCAARVVVPKPYVDGDYWGEGTQVTVSS | high polyreactivity
QVLLEESVGGLDQAGGSLRLSCAASGFNFQTNAMGRYRQAPGKEREFVAAISDSGGSTNYADSVKGRFTISRDNAKNTGYLQMNSLKPEDSAVYYCATSFAVYDYDYWGQGTQVTVSS | low polyreactivity
QVLLLESGGGVVQAGGSHRLRCAASGRIFCTNTMGWYRQAPGKERELVAVISSSGDSTYYADSVKGRFTISRDNAKNTVYLQINSLKPEDTAVYYCAKGNNWISRLMDYWGQGTQVTVSS | low polyreactivity
QVLLQESGGGLVQAGGSLRLCCSASGYISGDQFMGWYRQAPGKEREFVAGIGNGTNTNYADSVKGRFTTSRDNEKNTVYLQMNIRKPEDTAVYYCAADPSDGSTLAYWGQGTQVTVSS | high polyreactivity
QVLLQESGGLVQAGCSLRMSCAASGSISTALSMGWYRQAPGKERELVATISDGASTNYADSVKGRFTISRVNAKNTVYLQMNSLKPEDTEVYYCAAQSQYRPDHRYWGQGTQVTVSS | high polyreactivity
QVLLVESGGGLFQAGGRLRVSCAASGSTLLRYAMGWYRQAPGKERELVAAISGTGSRTYYADSVKGRFTISRDNAKNTVYLKMISLNPEDTAVYYCYACPYRLTEIDYWGQGTPVTVSS | high polyreactivity
QVLLVESGGGLVQAAGSLRLSSAASGRIFASYPLGWYRQAPGKERELVAAISKSGGRTYYADSVKGRFTISRDNAKNTVYVQMNSLKPVDTAVYDCAAFFWTRSGTPNFDYWGQGTQVTVSS | high polyreactivity
QVLLVESGGGLVQAGGSLRLSCAASGFIFDVYAMGWYRQAPGKERELVAAISSSGGRKYYADSVKGRFTISRDNAKNTVYLQMNSLKPEDTAVYYCAAKTHSRTKVYTADYWGQGTQVTVSS | high polyreactivity
QVLLVESGGGLVQAGGSLRLSCAASGITFAYYVMGWYRQAPGKERELVAAINWSGGSTYYADSVKGRFTISRDNAKNTVYLQMNSLKPEDPAVYYCAADWSTWYGEKFYWGQGTQVTVSS | high polyreactivity
QVLLVESGGGLVQAGGSLRLSCAASGRILYHYAMGWYRQAPGKERELVAAITRGGGTNYADSVKGRFTISRDNAKNTVYLQMNSLKPEDTAVYYCNADRFIVTRSRRGDYWGQGTQVTVSS | low polyreactivity
QVLLVESGGGLVQAGGSLRLSCAASGRTFGTNGMGWYRQAPGKERELVAVITWTGGSTYYADSVKGRFTITRDNEKNTVYLQMNSLKPEDTAVYYCAAKYSHLGYNYWGQGTQVTVSS | high polyreactivity
QVLLVESGGGLVQAGGSLRLSCAASGSILRTYAMGWYRQAPGKERELVAAITWSGGSTRYADSVKGRFTISRDNAKNTVYLQMNSLKPEDTAVYYCNARYRVYSYALYKYGYWGQGTQVTVSS | high polyreactivity
QVLLVESGGGLVQAGGSLRLSCAASGSTFYYYGMGWYRQAPGKEREFVAAISWGGGSTRYADSVKGRITISRDNAKNTVYLQMNSLKPEDTAVYYCAARYPHYDYYYWGQGTQVTVSS | high polyreactivity
QVLLVESGGGLVQAGGSLRLSCAASGYIFNRYVMGWTIQAPGKERELVAAIYIRGGSTFYSDSVKGCFTISRDNAKYTVYLQMNSLKPDDSAVYYCDDGRYGDYGYWGQGTQLTVSS | high polyreactivity
QVLLVESGGGLVQAGGSLRLSCSASGITFEYYAMGWYRQAPGKERELVADIDTGGSTNYADSVKGRFTISRDNAKNTVYLQMNSLKPEDTAVYYCAADWSWWDAEDYHFEYDYWGQGTQVTVSS | low polyreactivity
QVLLVESGGGLVQAGGSLRLSGAASGSTFYNYAMGWNRQAPGKERELVASISDDGSTNYADSVKGRFTISRDNAKNTVYLQMNSLKQVDSAVYSCAAVWWLQFGSAWYQMGYWGQGTQVTVSS | low polyreactivity
QVNLVDSGGRLVQAGGSLRLSCAASGRIFYRYAMGWYIQAPGKERELVAAISRRGGSTYYADSVKGRFTISRDNAKNTVYLQMNSLNPEDTAVYYCNVYRSAFSYDSWGQCTQVTVSS | high polyreactivity

Sequence | polyreactivity (PSR sort gate)
QVPLQESGGGLVQAGGSLRLSCAASGTISYAPHMGWYRQAPGKERELVAGITIGGTTYYADSVKGRFTISRDNAKNTVYLQMNSLSPGDTAVYYCAAHSEQYTPFYYWGQGTQVTVSS | low polyreactivity
QVPLVESGGGLVQAGGILRLSSAASGFIFTYYAMGWYRQAPGKERELVAAISASGGSTYYADSVKGRFTISRDYAKNTVYIQLYSLEPEDSSVYYCNKLYQQRAWETFSWGGYWGQGTQVTVSS | high polyreactivity
QVPLVESGGGLVQAGGRLRLSCAASGSTLLNSPMGWYRKAPGKERELVAAISSSGGRTYYPDSVKGRFTISRDNAKNTVYLQMNSLTPEDTEVYYCNKVLGYPKTFGYWGQGTQVSVSS | high polyreactivity
QVPLVESGGGLVQAGGSLRLSCAASGFTFGWYAMGWYRQAPGKERELVAAISSNGGRTSYADSVKGRFTISRDNAKNTVYLQMNSLKPEDTAVYYCNADDRYIWTYWGWTIYDYWGQGTQVTVSS | high polyreactivity
QVPLVESGGGLVQAGGSLRLSCAASGRIFIQNTMGWDSQAPGKERELVAAINRSAGSTYYADSVKGRFTISRDNAKNTVYLQMNSLKTEDTAVYYCAAYASRRYGYWGQVTQVTVSS | high polyreactivity
QVPLVESGGGLVQAGGSLRLSCAASGRIFYNYAMGWYRQAPGKERELVAAISGSGGSTYYADSVKGRFTISRDNAKNTVYLQMNSLKPEDSSVYYCSTSGPQYYSRNFDYWGQGTQVTVSS | low polyreactivity
QVPLVESGGGLVQAGGSLRLSCAASGRLFGYNTMGWYRQAPGKERELVARISYDVDSTYYADSVKGRFTISRDNAKNTVYLQMNSLKPEDTAVYYCNARRSNLGSYIEYFGFDYWGQGTQVTVSS | low polyreactivity
QVPLVESGGGLVQAGGSLRLSCAASGRNYFKYAMGWYRQAPGKERELVATITWRGSSTYYSDSVKGRFTISRDNAKNTVFLQMNSLKPEDTAVYYCAARYLYTDEYWDKFYYWGQGTQVTVSS | high polyreactivity
QVPLVESGGGLVQAGGSLRLSCAASGRTFPSNMGWYRQAPGKERELVAAISWRGGSTNYADSVKGRFTISRDNAKNTVYLQMNSLKPEDTAVYYCNARYNTQRYRFLVQGDYWGQGTQVTVSS | high polyreactivity
QVPLVESGGGLVQAGGSLRLSCAASGSIFGQYAMGWYRQAPGKERELVAAIRDGTGSTYYAVSVKGRFTISRDNAKNTVYVQMNSLKPEDRAVYYCAADYIWTSIVHYEYWGQGTEVTVSS | high polyreactivity
QVPLVESGGGLVQAGGSLRLSCAASGSIFLLYDMGWYRQAPGKERELVAAITWSGGSTYYADSVKGRFTISRDNAMNSVYLQMNSLKPEDTAVYYCAADEPYPTAYEYWGQGTQVTVSS | low polyreactivity
QVPLVESGGRLVQAGGSLRLSCAASGSTIGPYTMGWYRQAPGKERELVATISSGGSTYSADSVKGRFTISRDNEKNTVYLQMISLKPEDTAVYYCAARYRSIYDYWGQGTQVTVSS | low polyreactivity
QVPLVESGVGLVHAGGSLRISCATSGITFAYYFMGWYRQAPGKERELVAAISWTGSSTYYADSVKWRFTISRDNAKNTVYLQMNSLKQEDTAVYYCAARQRYLYDYWGQGTQVNVSS | high polyreactivity
QVPLVESGVGLVQAGGSLRISCAASGFTFSRYAMGWYRQAPGKERELVAAISRTGGRTYYADSVKGRFTITRDNAKNTVYLQMNSLKPEDTADYYCARVPVHSHLRQTYAMEYWGQGTQVTVSS | high polyreactivity
QVPLVESVGGLVQAGGSLRISCAASGSTLRGYAMGWYRKAPGKERELVAAISWRGGSTYYADSVKGRFTISRDNAKNTVYLQMNSLKPEDTAVYYCNALVAGHKYYTVTSKYDYWGQGTQLTVSS | high polyreactivity
QVQDVESGGGLVQAGGSLRLSCAAYGFIFYSYAMGWYRQAPGKERELVAAISTGDGSTTFADSVKGRFTISRDNAKNSVYLQMNSLKPEDTAVYYCNVKYRACYRTDFEYWGQGTQVTVSS | low polyreactivity
QVQFVESGGGLVQAGGSLRLSCAASGSIFYRYTMGSYRQAPGKERELVAAISSRGGSTYYADSVKGRFTISRDNAKNTVYLQMNSLKPEDTAVYYCAARYFRNPVFVIMDYWGQGTQVTVSS | high polyreactivity
QVQFVESGGGLVQAGGSLRLSCAASGSTFPYYAMGWYRQAPGKERELVAGINWRGSSTYYADSVKGRFTISRDNAKNTVYLQMNSLKPEDTAVYYCAARDYSYPQWYYYWGQGTQVTVSS | high polyreactivity
QVQFVESGGGLVQARCSLRLSCAASGFIFGVYAMGWYRQAPGKERELVAAINSGGGSTYYADSVKGRFTISRDNAKNTVYLQMNSLKPEDTAVYYCAVRYKSWYGFNYWGQGTQVTVSS | high polyreactivity
QVQHAESGGGLVQAGGSLRLSCAASGSTSAKNVMGWYRQAPGKVRELVAAISRSGGRTYYADSVKGRFTISRDNAKNTVYLQMNSLNPEDTAVYYCAARSATNHADDYYYWGQGTQVTVSS | high polyreactivity
